Ten molecules from article doi:10.1101/493668 (bioRxiv, 2019) can be followed below.

In data set [1] the target is CsgA, major curlin subunit, recombinant with C-terminal His6-tag (Escherichia coli) (UniProt P28307). As to the kind of experiment: SEC-MALS.
Data set [2] concerns the molecule itself. As to the kind of experiment: crystal structure.
Data set [3] concerns the molecule itself. The data set is described as follows: ThT fibrillation kinetics.
Data set [4] deals with the molecule itself. The data set is described as follows: ThT fibrillation kinetics. This is another data set of the same source.

No end group written: not given here.

Sequence of CsgA, major curlin subunit, recombinant with C-terminal His6-tag (P28307 21-151): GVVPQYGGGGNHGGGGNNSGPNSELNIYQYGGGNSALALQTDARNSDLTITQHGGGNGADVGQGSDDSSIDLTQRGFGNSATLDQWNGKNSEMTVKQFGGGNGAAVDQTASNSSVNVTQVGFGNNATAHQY

As to “CsgA, major curlin subunit, recombinant with C-terminal His6-tag (from UniProt P28307 21-151) (natural protein)”, the stoichiometry N in data set [1] was found to be 6. H-TASNSS-OH [CsgA segment 129TASNSS134 (R4-R5 loop), unmodified termini]: the binding result in data set [2] is “binds”.

For the molecule H-IYQYGG-OH [CsgA segment 47IYQYGG52 (R1 repeat), unmodified termini], the binding result in data set [2] is listed as “binds”. Regarding VTQVGF-NH2 [CsgA segment 137VTQVGF142 (R5 repeat), capped at the C-terminus], the binding result in data set [3] is listed as “binds”. As for H-VTQVGF-OH [CsgA segment 137VTQVGF142 (R5 repeat), unmodified termini], the binding result in data set [2] was “binds”. For Ac-IYQYGG-NH2 [CsgA segment 47IYQYGG52 (R1 repeat), capped termini], in data set [4], the binding result is “binds”. On to LNIYQY-NH2 [CsgA segment 45LNIYQY50 (R1 repeat), capped at the C-terminus], for which the binding result in data set [3] is recorded as “binds”.

Regarding Ac-LNIYQY-NH2 [CsgA segment 45LNIYQY50 (R1 repeat), capped termini], the binding result in data set [4] was “binds”. H-LNIYQY-OH [CsgA segment 45LNIYQY50 (R1 repeat), unmodified termini]: the binding result in data set [2] is “binds”. On to Ac-VTQVGF-NH2 [CsgA segment 137VTQVGF142 (R5 repeat), capped termini], for which the binding result in data set [4] is recorded as “binds”.

One may read the stoichiometry N as a count of units in the complex or per binding partner.
